B1: PDS5B (parent)
chain: IYKKYALQSAAGKDAAKQIAWIKD

Variants of: B1
Assay: protein stability index of a GFP-peptide fusion (GPS, HEK-293T) (PSI 1-6); higher = more stable
Conditions: c terminus: a fixed tail appended
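Note: lentivirally expressed fusions sorted by FACS into six bins by GFP to DsRed ratio, PSI derived from sequencing read proportions per bin multiplied by bin number.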

Protein stability index, by site and new letter:
Q8: W 1.92 | M 2.06 | N 2.06 | I 2.7 | Y 1.69 | T 1.84 | F 3.35 | D 2.27 | S 2.25 | A 2.4 | K 2.35 | L 1.85 | P 2.72 | R 2.21 | V 2.17 | G 2.01
S9: Q 2.79 | N 2.2 | I 1.93 | K 1.87 | L 1.76 | C 2 | P 2.17 | M 2.44 | T 2.06 | D 3.27 | G 2.17 | E 2.73 | R 2.29 | H 2.38 | Y 1.75 | W 1.99 | F 2 | V 2.13 | A 2.16
K3: S 2.48 | W 2.95 | Q 2.33 | N 2.27 | F 2.15 | M 1.72 | E 2.88 | H 2.36 | P 2.65 | C 1.51 | G 2.24 | A 2.26 | I 2.93 | V 1.75 | L 2.4 | T 2.15 | R 2.56 | Y 2.19 | D 3.43
G12: A 1.86 | E 2.34 | W 2.63 | R 1.88 | C 1.6 | S 1.96 | D 3.13 | K 1.75 | P 2.74 | L 1.84 | F 1.99 | N 2.19 | T 1.71 | H 1.67 | I 1.69 | Y 1.64 | Q 1.58 | V 2.08
Y5: K 2.93 | G 2.82 | M 1.91 | D 3.79 | A 2.78 | T 3.36 | F 1.92 | R 2.43 | S 2.65 | I 2.26 | E 3.09 | C 1.75 | H 2.46 | L 2.36 | W 1.98 | Q 2.99 | P 3.63 | V 2.89 | N 2.93
A15: V 1.71 | M 1.83 | Y 1.45 | Q 2.29 | I 1.69 | H 2.22 | D 2.35 | C 1.89 | K 2.76 | L 2.64 | G 2.9 | S 2.73 | W 1.43 | E 2.7 | N 2.5 | F 1.75 | P 2.56 | R 2.09 | T 2.35
D14: Q 2.15 | A 1.9 | G 2.24 | T 1.94 | H 1.86 | S 2.15 | C 1.36 | R 2.72 | M 2.1 | F 2.07 | E 2.1 | P 2.34 | I 1.82 | W 2.1 | K 2.28 | N 2.19 | L 1.68 | Y 1.85 | V 2.1
K13: R 2.77 | H 2.29 | Y 2.92 | E 2.55 | D 2.6 | P 2.4 | G 2.22 | L 2.14 | Q 2.1 | I 2.16 | V 2 | C 1.94 | F 1.93 | T 2.3 | A 2.93 | S 2.28 | N 2.27 | M 2.17 | W 1.84
A10: D 2.53 | P 2.26 | S 2.36 | C 1.72 | W 1.77 | L 2.32 | M 1.83 | V 2.1 | T 2.42 | Y 1.75 | H 1.84 | Q 2.4 | R 1.37 | G 1.71 | F 1.37 | K 2 | E 2.38 | N 2.19 | I 1.89

From the supplement of paper PMC10567573
